Assay results taken from patent US20230390362A1, “USE OF TRIGONAL AGONIST HAVING ACTIVITIES TO ALL OF GLUCAGON, GLP-1, AND GIP RECEPTORS IN TREATMENT OF SEQUELAE FOLLOWING RESPIRATORY INFECTIOUS DISEASES” (HANMI PHARM. CO., LTD., priority 2020, published 2023).
Positions of bridges follow the written chain, without caps; N, C: chain ends. Non-standard residues stand in square brackets, D forms with d. No end group written: not given here. *: point of attachment. Acetyl(2-(4-imidazolyl)) = O=C(Cc1c[nH]cn1)*; Aib = CC(C)(N)C(=O)O

Target: human GLP-1 receptor (human, UniProt P43220 24-463)
Experiment: cell-based or functional assay

Going from H[Aib]QGTFTSDYSKYLDEKAAKEFVQWLLNTC (bridge 16-20) [trigonal agonist of SEQ ID NO: 29] to H[Aib]QGTFTSDYSKYLDERACQDFVQWLLDQGGPSSGAPPPS [trigonal agonist of SEQ ID NO: 27], the “In vitro activity relative to native peptide (%), vs. GLP-1 (cAMP EC50)” value rises from 38.5% to 83.1%.

Going from H[Aib]QGTFTSDYSKYLDEKRAQEFVCWLLAQKGKKNDWKHNIT [trigonal agonist of SEQ ID NO: 28] to H[Aib]QGTFTSDVSSYLLGQAAKQFIAWLVKGGGPSSGAPPPSC [trigonal agonist of SEQ ID NO: 3], the “In vitro activity relative to native peptide (%), vs. GLP-1 (cAMP EC50)” value falls from 17.2% to 1.8%.

Compared with H[Aib]QGTFTSDCSKYLDERAAQDFVQWLLDGGPSSGAPPPS [trigonal agonist of SEQ ID NO: 25], {Acetyl(2-(4-imidazolyl))}-GQGTFTSDLSIQYEEEAQQDFVEWLKDTGPSSGAPPPSHG [trigonal agonist of SEQ ID NO: 20] is lower in “In vitro activity relative to native peptide (%), vs. GLP-1 (cAMP EC50)” value: 82.6% for the first, less than 0.1% for the second.

Going from Y[Aib]QGTFTSDYSKYLDECRAKEFVQWLKNGGPSSGAPPPS (bridge 16-20) [trigonal agonist of SEQ ID NO: 24] to Y[Aib]QGTFTSDYSKCLDEKRAKEFVQWLLDHHPSSGQPPPS (bridge 16-20) [trigonal agonist of SEQ ID NO: 22], the “In vitro activity relative to native peptide (%), vs. GLP-1 (cAMP EC50)” value falls from 41.2% to 20.1%.

First: H[Aib]QGTFTSDYSKYLDEKACKDFVQWLLDGGPSSGAPPPS (bridge 16-20) [trigonal agonist of SEQ ID NO: 32]
Second: H[Aib]QGTFTSDYSIAMDEIHQKDFVNWLLAQKC (bridge 16-20) [trigonal agonist of SEQ ID NO: 33]
The “In vitro activity relative to native peptide (%), vs. GLP-1 (cAMP EC50)” value of the first is higher: 151% for the first, 24.5% for the second.

Going from H[Aib]QGTFTSDYSKYLDEKAQKEFVQWLLDTC (bridge 16-20) [trigonal agonist of SEQ ID NO: 30] to H[Aib]QGTFTSDCSKYLDSRAAQDFVQWLLDGGPSSGAPPPS [trigonal agonist of SEQ ID NO: 26], the “In vitro activity relative to native peptide (%), vs. GLP-1 (cAMP EC50)” value falls from 142% to 64.5%.

First: Y[Aib]QGTFTSDYSKYLDECRAKEFVQWLLDHHPSSGQPPPS (bridge 16-20) [trigonal agonist of SEQ ID NO: 21]
Second: H[Aib]QGTFTSDYSKYLDEKACKEFVQWLLAQ (bridge 16-20) [trigonal agonist of SEQ ID NO: 31]
The “In vitro activity relative to native peptide (%), vs. GLP-1 (cAMP EC50)” value of the first is lower: 17.8% for the first, 135% for the second.

In the case of Y[Aib]QGTFTSDYSKYLDECRAKEFVQWLLAQKGKKNDWKHNIT (bridge 16-20) [trigonal agonist of SEQ ID NO: 23], the “In vitro activity relative to native peptide (%), vs. GLP-1 (cAMP EC50)” value is reported as 4.01%.

Target: T1, human GIP receptor (human, UniProt P48546 22-466)
T1 sequence (looked up): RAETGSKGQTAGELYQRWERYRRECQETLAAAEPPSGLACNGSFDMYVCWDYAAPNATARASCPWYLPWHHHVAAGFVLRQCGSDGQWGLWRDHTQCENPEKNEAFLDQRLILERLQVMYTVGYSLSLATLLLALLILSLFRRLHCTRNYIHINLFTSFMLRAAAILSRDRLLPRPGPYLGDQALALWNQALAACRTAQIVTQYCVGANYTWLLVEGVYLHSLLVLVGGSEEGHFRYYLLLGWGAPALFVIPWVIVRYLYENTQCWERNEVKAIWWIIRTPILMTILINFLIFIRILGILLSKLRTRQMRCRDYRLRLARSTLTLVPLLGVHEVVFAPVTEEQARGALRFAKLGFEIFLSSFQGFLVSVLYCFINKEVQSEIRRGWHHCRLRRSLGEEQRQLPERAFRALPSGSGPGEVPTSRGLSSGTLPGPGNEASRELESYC
Experiment: cell-based or functional assay

Compared with H[Aib]QGTFTSDYSKYLDEKAAKEFVQWLLNTC (bridge 16-20) [trigonal agonist of SEQ ID NO: 29], H[Aib]QGTFTSDYSKYLDERACQDFVQWLLDQGGPSSGAPPPS [trigonal agonist of SEQ ID NO: 27] is higher in “In vitro activity relative to native peptide (%), vs. GIP (cAMP EC50)” value: less than 0.1% for the first, 0.9% for the second.

H[Aib]QGTFTSDYSKYLDEKRAQEFVCWLLAQKGKKNDWKHNIT [trigonal agonist of SEQ ID NO: 28] and H[Aib]QGTFTSDVSSYLLGQAAKQFIAWLVKGGGPSSGAPPPSC [trigonal agonist of SEQ ID NO: 3] cannot be ordered by “In vitro activity relative to native peptide (%), vs. GIP (cAMP EC50)” value: less than 0.1% for the first, less than 0.1% for the second.

H[Aib]QGTFTSDCSKYLDERAAQDFVQWLLDGGPSSGAPPPS [trigonal agonist of SEQ ID NO: 25] and {Acetyl(2-(4-imidazolyl))}-GQGTFTSDLSIQYEEEAQQDFVEWLKDTGPSSGAPPPSHG [trigonal agonist of SEQ ID NO: 20] cannot be ordered by “In vitro activity relative to native peptide (%), vs. GIP (cAMP EC50)” value: less than 0.1% for the first, less than 0.1% for the second.

Compared with Y[Aib]QGTFTSDYSKYLDECRAKEFVQWLKNGGPSSGAPPPS (bridge 16-20) [trigonal agonist of SEQ ID NO: 24], Y[Aib]QGTFTSDYSKCLDEKRAKEFVQWLLDHHPSSGQPPPS (bridge 16-20) [trigonal agonist of SEQ ID NO: 22] is higher in “In vitro activity relative to native peptide (%), vs. GIP (cAMP EC50)” value: less than 0.1% for the first, 59.7% for the second.

Compared with H[Aib]QGTFTSDYSKYLDEKACKDFVQWLLDGGPSSGAPPPS (bridge 16-20) [trigonal agonist of SEQ ID NO: 32], H[Aib]QGTFTSDYSIAMDEIHQKDFVNWLLAQKC (bridge 16-20) [trigonal agonist of SEQ ID NO: 33] is higher in “In vitro activity relative to native peptide (%), vs. GIP (cAMP EC50)” value: 8.8% for the first, 10.4% for the second.

Going from H[Aib]QGTFTSDYSKYLDEKAQKEFVQWLLDTC (bridge 16-20) [trigonal agonist of SEQ ID NO: 30] to H[Aib]QGTFTSDCSKYLDSRAAQDFVQWLLDGGPSSGAPPPS [trigonal agonist of SEQ ID NO: 26], the “In vitro activity relative to native peptide (%), vs. GIP (cAMP EC50)” value falls from 0.8% to less than 0.1%.

First: Y[Aib]QGTFTSDYSKYLDECRAKEFVQWLLDHHPSSGQPPPS (bridge 16-20) [trigonal agonist of SEQ ID NO: 21]
Second: H[Aib]QGTFTSDYSKYLDEKACKEFVQWLLAQ (bridge 16-20) [trigonal agonist of SEQ ID NO: 31]
The “In vitro activity relative to native peptide (%), vs. GIP (cAMP EC50)” value of the first is higher: 22.7% for the first, 2.4% for the second.

Y[Aib]QGTFTSDYSKYLDECRAKEFVQWLLAQKGKKNDWKHNIT (bridge 16-20) [trigonal agonist of SEQ ID NO: 23] was tested, and the “In vitro activity relative to native peptide (%), vs. GIP (cAMP EC50)” value was less than 0.1%.

Target: human GCG receptor (human, UniProt P47871 26-477)
Sequence (P47871 26-477): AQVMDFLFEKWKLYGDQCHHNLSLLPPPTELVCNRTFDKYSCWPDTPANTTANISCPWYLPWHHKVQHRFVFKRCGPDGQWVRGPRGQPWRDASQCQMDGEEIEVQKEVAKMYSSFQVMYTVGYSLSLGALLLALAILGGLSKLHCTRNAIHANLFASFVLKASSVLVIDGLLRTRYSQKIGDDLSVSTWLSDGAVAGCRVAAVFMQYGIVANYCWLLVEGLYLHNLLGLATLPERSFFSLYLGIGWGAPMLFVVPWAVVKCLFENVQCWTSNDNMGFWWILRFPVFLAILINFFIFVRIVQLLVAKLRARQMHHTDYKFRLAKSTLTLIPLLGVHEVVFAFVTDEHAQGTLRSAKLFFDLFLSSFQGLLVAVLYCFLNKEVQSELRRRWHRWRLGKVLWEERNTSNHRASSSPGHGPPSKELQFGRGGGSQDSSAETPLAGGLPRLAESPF
Experiment: cell-based or functional assay

First: H[Aib]QGTFTSDYSKYLDEKAAKEFVQWLLNTC (bridge 16-20) [trigonal agonist of SEQ ID NO: 29]
Second: H[Aib]QGTFTSDYSKYLDERACQDFVQWLLDQGGPSSGAPPPS [trigonal agonist of SEQ ID NO: 27]
The “In vitro activity relative to native peptide (%), vs. Glucagon (cAMP EC50)” value of the first is higher: 6% for the first, 0.8% for the second.

First: H[Aib]QGTFTSDYSKYLDEKRAQEFVCWLLAQKGKKNDWKHNIT [trigonal agonist of SEQ ID NO: 28]
Second: H[Aib]QGTFTSDVSSYLLGQAAKQFIAWLVKGGGPSSGAPPPSC [trigonal agonist of SEQ ID NO: 3]
The “In vitro activity relative to native peptide (%), vs. Glucagon (cAMP EC50)” value of the first is higher: 1.6% for the first, less than 0.1% for the second.

First: H[Aib]QGTFTSDCSKYLDERAAQDFVQWLLDGGPSSGAPPPS [trigonal agonist of SEQ ID NO: 25]
Second: {Acetyl(2-(4-imidazolyl))}-GQGTFTSDLSIQYEEEAQQDFVEWLKDTGPSSGAPPPSHG [trigonal agonist of SEQ ID NO: 20]
The “In vitro activity relative to native peptide (%), vs. Glucagon (cAMP EC50)” value of the first is higher: 0.1% for the first, less than 0.1% for the second.

Compared with Y[Aib]QGTFTSDYSKYLDECRAKEFVQWLKNGGPSSGAPPPS (bridge 16-20) [trigonal agonist of SEQ ID NO: 24], Y[Aib]QGTFTSDYSKCLDEKRAKEFVQWLLDHHPSSGQPPPS (bridge 16-20) [trigonal agonist of SEQ ID NO: 22] is higher in “In vitro activity relative to native peptide (%), vs. Glucagon (cAMP EC50)” value: 9.3% for the first, 140% for the second.

Compared with H[Aib]QGTFTSDYSKYLDEKACKDFVQWLLDGGPSSGAPPPS (bridge 16-20) [trigonal agonist of SEQ ID NO: 32], H[Aib]QGTFTSDYSIAMDEIHQKDFVNWLLAQKC (bridge 16-20) [trigonal agonist of SEQ ID NO: 33] is lower in “In vitro activity relative to native peptide (%), vs. Glucagon (cAMP EC50)” value: 1.7% for the first, less than 0.1% for the second.

Compared with H[Aib]QGTFTSDYSKYLDEKAQKEFVQWLLDTC (bridge 16-20) [trigonal agonist of SEQ ID NO: 30], H[Aib]QGTFTSDCSKYLDSRAAQDFVQWLLDGGPSSGAPPPS [trigonal agonist of SEQ ID NO: 26] is lower in “In vitro activity relative to native peptide (%), vs. Glucagon (cAMP EC50)” value: 0.7% for the first, 0.2% for the second.

Compared with Y[Aib]QGTFTSDYSKYLDECRAKEFVQWLLDHHPSSGQPPPS (bridge 16-20) [trigonal agonist of SEQ ID NO: 21], H[Aib]QGTFTSDYSKYLDEKACKEFVQWLLAQ (bridge 16-20) [trigonal agonist of SEQ ID NO: 31] is lower in “In vitro activity relative to native peptide (%), vs. Glucagon (cAMP EC50)” value: 267% for the first, 2.2% for the second.

With Y[Aib]QGTFTSDYSKYLDECRAKEFVQWLLAQKGKKNDWKHNIT (bridge 16-20) [trigonal agonist of SEQ ID NO: 23] the “In vitro activity relative to native peptide (%), vs. Glucagon (cAMP EC50)” value was 9.3%.
